Biological target: T1, Flag-tagged Drosophila Iron Regulatory Protein 1A (IRP1A), wild type (Drosophila, UniProt Q9VCV4 1-902)
T1 construct: Drosophila IRP1A, cDNA LD36161; also called wild type IRP1A; 3x Flag-tagged IRP1A; source: S2 cells, transfected, in lysate
T1 sequence (looked up): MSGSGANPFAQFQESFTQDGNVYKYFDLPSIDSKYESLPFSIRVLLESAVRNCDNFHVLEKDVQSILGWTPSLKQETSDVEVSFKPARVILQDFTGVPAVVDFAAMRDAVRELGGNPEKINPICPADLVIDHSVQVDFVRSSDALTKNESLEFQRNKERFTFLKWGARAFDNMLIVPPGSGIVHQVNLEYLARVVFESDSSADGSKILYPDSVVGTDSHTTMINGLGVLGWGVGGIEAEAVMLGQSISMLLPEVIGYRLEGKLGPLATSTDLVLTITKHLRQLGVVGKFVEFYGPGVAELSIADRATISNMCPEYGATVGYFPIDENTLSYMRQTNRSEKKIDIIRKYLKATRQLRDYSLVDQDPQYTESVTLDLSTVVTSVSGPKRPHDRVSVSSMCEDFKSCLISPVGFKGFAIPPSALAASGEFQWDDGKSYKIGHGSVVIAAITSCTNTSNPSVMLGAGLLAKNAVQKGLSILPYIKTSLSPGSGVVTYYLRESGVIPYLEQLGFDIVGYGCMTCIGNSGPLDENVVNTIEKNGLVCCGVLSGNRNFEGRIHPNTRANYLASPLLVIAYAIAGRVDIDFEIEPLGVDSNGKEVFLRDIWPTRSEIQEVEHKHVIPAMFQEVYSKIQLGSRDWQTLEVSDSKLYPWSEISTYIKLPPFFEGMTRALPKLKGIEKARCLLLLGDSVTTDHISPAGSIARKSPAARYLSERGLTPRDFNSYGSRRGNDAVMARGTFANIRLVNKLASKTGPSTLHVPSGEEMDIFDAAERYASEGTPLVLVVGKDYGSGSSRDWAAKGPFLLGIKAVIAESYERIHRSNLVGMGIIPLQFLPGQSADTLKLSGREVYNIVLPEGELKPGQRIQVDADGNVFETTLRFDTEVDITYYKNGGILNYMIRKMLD
Assay: co-IP; S2 cells, triple co-transfection of 3xFlag-IRP1A, 6xMyc-AGBE and 3xHA-Cisd2 from one plasmid; Flag-IRP1A as bait; co-precipitated Cisd2 quantified against the sample without AGBE; three biological replicates
Settings: partners not purified

fold change of co-immunoprecipitated Cisd2 with AGBE co-transfected against without AGBE: ~3 fold
B1: HA-tagged Drosophila Cisd2 (natural protein, UniProt Q9VAM6 1-133, looked up)
chain: MEPISHLVKSSLPNYLSSLPVPDSIGGWFKLSFKDWLALIPPTVVVAGLGYTAYLAYCPAARASCAAKNSGRCNNHIRKNEPKVVDMIDVEDIAEKAAFCRCWKTKNWPYCDGSHGEHNKQTGDNVGPIVIKK
notes: Drosophila Cisd2, cDNA RE49709; also called mitoNEET; Cisd2/mitoNEET; source: S2 cells, transfected, in lysate

— publication PMC6884552, “Glycogen branching enzyme controls cellular iron homeostasis via Iron Regulatory Protein 1 and mitoNEET” (Nature Communications, 2019)
